How the values were obtained:
[1] = molecular target: T1, CpGV PK-1 (Cydia pomonella granulosis virus (isolate Mexican), UniProt Q91F41); assay: X-ray crystal structure, […] A; assay type: binding; conditions: co-crystallised with 1 mM AMP and 10 mM MnCl2; ATP site; 18 C
T1 construct: gene orf3 pk-1; full-length (residues 1-279), E. coli expressed; assay protein codon-optimised, His6 tag cut by TEV; crystal protein amplified from genomic DNA, TEV-cleavable His6-MBP tag; homodimer 66 kDa

[2] = molecular target: Cydia pomonella granulovirus protein kinase-1 (PK-1), full-length wild type (pPROEX Htb construct) (Cydia pomonella granulovirus (CpGV)); assay: AUC; sedimentation velocity, 0.9 mg/mL (27 μM), 20 °C, 50,000 rpm, 20 mM HEPES pH 7.5, 200 mM NaCl; c(s) model
[3] = molecular target: Cydia pomonella granulovirus protein kinase-1 (PK-1), full-length wild type (pPROEX Htb construct) (Cydia pomonella granulovirus (CpGV)); assay: SEC
[4] = molecular target: Cydia pomonella granulovirus protein kinase-1 (PK-1), full-length wild type (pPROEX Htb construct) (Cydia pomonella granulovirus (CpGV)); assay: SAXS with inline SEC; 5 mg/mL (152 μM) injected on Superdex 200 5/150 Increase, 20 mM HEPES pH 7.5, 200 mM NaCl, 5% glycerol, 12 °C; scatter compared with the crystal dimer (CRYSOL), mass by SAXSMoW2
[5] = molecular target: PK-1 15-279, truncated PK-1 lacking the domain-swapped N-terminal helix (Cydia pomonella granulovirus (CpGV)); assay: SEC
[6] = molecular target: PK-1 D141N, full length (Cydia pomonella granulovirus (CpGV)); assay: SEC
[7] = molecular target: PK-1 D160N, full length (Cydia pomonella granulovirus (CpGV)); assay: SEC
[8] = molecular target: PK-1 E217DNEEE>QNNQQQ, acidic αF-αG loop mutant (Cydia pomonella granulovirus (CpGV)); assay: SEC
[9] = molecular target: PK-1 K49A, full length (Cydia pomonella granulovirus (CpGV)); assay: SEC

For `Nc1ncnc2c1ncn2[C@@H]1O[C@H](COP(=O)(O)O)[C@@H](O)[C@H]1O` [AMP], the “X-ray crystal structure, 2.01 A” value [1] was “crystal structure of PK-1 from C. pomonella granulovirus (CpGV) in complex with AMP”.
Work on “Cydia pomonella granulovirus protein kinase-1 (PK-1), full-length wild type (pPROEX Htb construct) (enzyme)” yielded a stoichiometry N [2] of 2, a stoichiometry N [3] of 2 and a stoichiometry N [4] of 2.
In the case of “PK-1 15-279, truncated PK-1 lacking the domain-swapped N-terminal helix (domain or fragment)”, the stoichiometry N [5] was 2.
Work on PK-1 D141N, full length (enzyme) yielded a stoichiometry N [6] of 2.
PK-1 D160N, full length (enzyme) was tested, and the stoichiometry N [7] was 2.
With “PK-1 E217DNEEE>QNNQQQ, acidic αF-αG loop mutant (enzyme)” the stoichiometry N [8] was 2.
Work on PK-1 K49A, full length (enzyme) yielded a stoichiometry N [9] of 2.

Reference: publication PMC7881018, “Granulovirus PK-1 kinase activity relies on a side-to-side dimerization mode centered on the regulatory αC helix” (Nature Communications, 2021)
